From patent US20180021429A1, “ANTICANCER AGENTS OR ANTIMETASTATIC AGENTS USING FSTL1 AND COMBINATION DRUG THEREOF” (PHARMA FOODS INTERNATIONAL CO., LTD., priority 2015, published 2018)

T1: FSTL1 (Homo sapiens, UniProt Q12841)
T1 sequence (Q12841 21-308): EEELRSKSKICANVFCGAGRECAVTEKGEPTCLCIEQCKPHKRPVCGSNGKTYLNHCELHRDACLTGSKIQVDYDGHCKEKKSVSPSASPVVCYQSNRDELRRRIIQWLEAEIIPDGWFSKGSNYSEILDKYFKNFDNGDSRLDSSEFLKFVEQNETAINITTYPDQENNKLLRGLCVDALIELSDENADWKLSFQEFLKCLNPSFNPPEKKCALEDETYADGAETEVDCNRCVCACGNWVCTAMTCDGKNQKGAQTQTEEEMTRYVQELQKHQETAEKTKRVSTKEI


Experiments:
FSTL1 [1] = target: T1, FSTL1; assay: Biacore T-200 affinity of mouse chimeric antibodies for human FSTL1 (Example 33); assay type: binding
Experimental: (§1) The mouse chimeric antibodies were immobilized onto Sensor Chip CM5 (GE Healthcare Japan Corp., BR-1005-30) using Mouse Antibody Capture Kit (GE Healthcare Japan Corp., BR-1008-38), and their affinity for human FSTL1 was calculated using Biacore T-200 (GE Healthcare Japan Corp.).
First, the exhaustive activity comparison of the obtained antibodies was conducted with the human FSTL1 concentration fixed to 10 μg/ml (Table 33-1, FIG. 122).
Next, the KD values of clone #6-55, #7-34, and #13 presumed to have high affinity in FIG. 122 were calculated with the antigen concentration adjusted to 0 to 20 μg/ml (Table 35-2).

[2] = test system: GFP+F10-snail+ tumor cells; assay: In vivo drug efficacy of each anti-FSTL1 antibody clone, Snail+ tumor bone metastasis model (Example 32); design: species or system mouse; conditions: intraperitoneal 10 mg/kg on days 4 and 7; for suppressive activity against subcutaneous tumor growth: FIG. 26, vs control antibody; for mouse survival period (life-prolonging effect): FIG. 27
Experimental: • Day 0: transplantation of GFP+F10-snail+ tumor cells (3×10^5 cells subcutaneously & 2×10^4 cells intravenously) • Day 4: intraperitoneal administration of the antibody (first dose, 10 mg/kg) • Day 7: intraperitoneal administration of the antibody (second dose, 10 mg/kg)
Subcutaneous tumor was measured 4, 7, 10, 14, 17, 20, and 23 days after tumor cell transplantation.

FSTL1 [3] = target: T1, FSTL1; assay: Affinity of mouse chimeric antibodies, Biacore T-200 (Example 33); assay type: binding
Experimental: as §1
First, the exhaustive activity comparison of the obtained antibodies was conducted with the human FSTL1 concentration fixed to 10 μg/ml (Table 33-1, FIG. 28).
Next, the KD values of clone #6-55, #7-34, and #13 presumed to have high affinity in FIG. 28 were calculated with the antigen concentration adjusted to 0 to 20 μg/ml (Table 35-2).

[4] = test system: mouse melanoma cells (B16-F10) forced to express Snail; assay: In vivo, intratumoral administration, Snail-positive B16-F10 bone metastasis model (Example 17); design: species or system C57BL/6N mice; conditions: intratumoral 200 μg/0.1 mL/tumor on day 7; GFP-positive tumor cells in bone marrow, day 14
Text: Three antibodies were comparatively analyzed for their antitumor effects and an immunosuppression-mitigating effect using bone metastasis models in which mouse melanoma cells B16-F10 forced to express Snail were subcutaneously and intravenously transplanted in C57BL/6N mice.
1. Experiment Group (n=5) • 1. No treatment • 2. Control IgG (anti-DNP) • 3. Anti-FSTL1 Clone #6-55 • 4. Anti-FSTL1 Clone #7-34 • 5. Anti-FSTL1 Clone #8-1 2. Experimental procedure • Day 0: transplantation of GFP-positive and Snail-positive B16-F10 tumor cells (5×10^5 cells subcutaneously & 1×10^5 cells intravenously) • Day 7: intratumoral administration of the antibody (200 μg/0.1 mL/tumor) • Day 14: various assays (with a focus on flow cytometry analysis) 3. Index for drug efficacy evaluation • Effects on the growth of subcutaneous tumor (calculation of tumor volume by tumor size measurement): measured 7, 11, and 14 days after tumor implantation (FIG. 11C) • Effects on bone metastasis (GFP-positive tumor cells in bone marrow) (FIG. 11A) • Effects on the expansion of mesenchymal stem cells (CD45-negative cells in bone marrow and in the spleen) (FIGS. 11B and 11D) • Effects on the expansion of immunosuppressive Treg cells (CD4-positive and Foxp3-positive cells in bone marrow or the spleen) (FIG. 11D) • Other immunosuppressive properties (FIG. 11D)
In order to evaluate in vivo antibody activity, antitumor effects and immunosuppression-mitigating effects were comparatively analyzed using bone metastasis models in which mouse melanoma cells (B16-F10) forced to express Snail were subcutaneously and intravenously transplanted in C57BL/6N mice. An anti-FSTL1 antibody to be tested was administered into tumor. On day 0, GFP-positive and Snail-positive B16-F10 tumor cells (5×10^5 cells subcutaneously & 1×10^5 cells intravenously) were transplanted. On day 7, the antibody was administered into subcutaneous tumor (200 μg/0.1 mL/tumor). On day 14, various assays were conducted. […]

Molecule	affinity in an assay system using surface plasmon resonance (FSTL1 [1])	suppressive activity against subcutaneous tumor growth [2]	affinity in surface plasmon resonance assay (FSTL1 [3])	mouse survival period (life-prolonging effect) [2]	bone metastasis [4]
#13: chicken-mouse chimeric anti-FSTL1 antibody clone; variable regions SEQ ID NO: 815 (light), 817 (heavy) (antibody, V domains shown, mouse constant regions) VH: AVTLDESGGGLQTPGGGLSLVCKASGFTFSSVTMQWVRQAPGKGLEWVASICSGSSTYYGPAVKGRATISRDNGQNTVRLQLNNLRAEDTATYYCAKIVGRGRWSCTSAAYNIDAWGHGTEVIVSS VL: ASTQPSSVSANPGETVKITCSGGGNNYGWYQQKSPGSAPVTVIYNNNNRPSNIPSRFSGSKSGSTNTLTITGVQAEDEAVYYCGSYDSSSDSGIFGAGTTLTVL	strong affinity	all of the clones except for #13 exhibited statistically significant suppressive activity	strong affinity		
#33: chicken-mouse chimeric anti-FSTL1 antibody clone; variable regions SEQ ID NO: 823 (light), 825 (heavy) (antibody, V domains shown, mouse constant regions) VH: AVTLDESGGGLQTPGGGLSLVCKASGFTFSSFNMNWVRQAPGKGLEYVAEISGTGSSTYYGSAVKGRATISRDNGQSTVRLQLNNLRAEDTATYFCARGDGAYSIDAWGHGTEVIVSS VL: ASTQPSSVSANPGETVEITCSGDSSYYGWFQQKSPGSAPVTVIYDNTNRPSDIPSRFSGSKSGSTATLTITGVRAEDEAVYYCGGYDSSTYDGIFGAGTTLTVL	strong affinity		strong affinity	therapeutic effects equal to or higher than those of #6-55	
#6-55: chicken-mouse chimeric anti-FSTL1 antibody clone; variable regions SEQ ID NO: 783 (light), 785 (heavy) (antibody, V domains shown, mouse constant regions) VH: AVTLDESGGGLQTPGGALSLVCKGSGFTFTSVTMQWVRQAPGKGLEWVASVCSGSSTYYAPAVKGRATISRDNGQSTVRLQLSNLRPEDTGTYYCAKIAGRARWSCTSAAYNIDAWGHGTEVIVSS VL: ASTQPSSVSAIPGETVKITCSGGGNNYGWYQQRSPGSAPVTVIYYNDNRPSNIPSRFSGSTSGSTSTLTITGVQADDEAIYYCGSWDSNTDSGIFGAGTTLTVL	strong affinity	statistically significant suppressive activity	strong affinity	statistically significant life-prolonging effect	bone metastasis was suppressed by only #6-55 and #8-1
#7-34: chicken-mouse chimeric anti-FSTL1 antibody clone; variable regions SEQ ID NO: 787 (light), 789 (heavy) (antibody, V domains shown, mouse constant regions) VH: AVTLDESGGGLQTPGGGLSLVCKASGFTFSSVTMQWVRQAPGKGLEWVASICSGSSTYYGPAVKGRATISRDNGQNTVRLQLNNLRAEDTATYYCAKIVGRGRWSCTSAAYNIDAWGHGTEVIVSS VL: ASTQPSSVSANPGETVKITCSGGGNNYGWYQQKSPGSAPVTVIYYNNNRPSNIPSRFSGSTSGSTSTLTITGVQAEDEAVYYCGSYEGSTDSGIFGAGTTLTVL					no suppressive effect was seen
#8-1: chicken-mouse chimeric anti-FSTL1 antibody clone; variable regions SEQ ID NO: 791 (light), 793 (heavy) (antibody, V domains shown, mouse constant regions) VH: AVTLDESGGGLQTPGGALSLVCKGSGFTFSSFNMFWVRQAPGKGLEWVAGIGKDGVPKYGAAVDGRATISKDNGQSTMRLQLNNLRAEDTGTYFCAKAAGGCSYDWCGIYAGDIDTWGHGTEVIVSS VL: ASTQPSSVSANPGEAVKITCSGGSGSYYGWYQQKSPGSAPVTVIYNNNQRPSDIPSRFSGSKSGSTATLTITGVQAEDEAVYFCGGYDSSSGHGGIFGAGTTLTVL					bone metastasis was suppressed by only #6-55 and #8-1
